This note sets out measurements from patent US20120253017A1 (published 2012).

Like-named read-outs stand apart in the source and are kept apart here.

For test [1], the target named is T1, cyno c-kit (recombinant, on BIAcore chip) (cynomolgus monkey).
T1 chain: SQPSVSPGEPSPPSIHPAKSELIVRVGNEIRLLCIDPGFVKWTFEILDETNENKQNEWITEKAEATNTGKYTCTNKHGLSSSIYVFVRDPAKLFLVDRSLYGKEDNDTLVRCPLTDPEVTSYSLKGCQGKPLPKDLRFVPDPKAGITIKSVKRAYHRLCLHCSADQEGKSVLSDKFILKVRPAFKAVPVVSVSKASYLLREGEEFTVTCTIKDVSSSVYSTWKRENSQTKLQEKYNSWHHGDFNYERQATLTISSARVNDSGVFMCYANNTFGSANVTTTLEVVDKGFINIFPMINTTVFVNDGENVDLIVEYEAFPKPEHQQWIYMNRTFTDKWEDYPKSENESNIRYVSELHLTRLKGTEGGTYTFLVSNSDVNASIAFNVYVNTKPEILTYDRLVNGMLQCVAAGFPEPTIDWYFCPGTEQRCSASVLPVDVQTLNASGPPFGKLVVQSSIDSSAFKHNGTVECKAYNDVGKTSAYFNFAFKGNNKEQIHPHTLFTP
The test is described as follows: BIAcore, c-kit on SA chip. (Surface plasmon resonance follows binding to a sensor surface in real time, without labels.)

Test [2] addresses T2, human c-kit (recombinant, on BIAcore chip or beads) (human, UniProt P10721 26-524).
T2 construct: extracellular domain; also called hcKIT; biotinylated human c-kit
Briefly: BIAcore, c-kit on SA chip. The protocol: (§1) All unique dAb clones were expressed in 50 ml cultures (OnEX plus carbenicillin) overnight at 37° C. and purified on protein A (VH dAbs) or protein L (VK dAbs). Purified dAbs were passed over a SA BIAcore chip coated with either human or mouse c-kit at 1 μM to identify those dAbs that bound specifically to either human or murine c-kit.

Test [3] has as its target T3, rat cKIT ECD (rat, UniProt Q63116 25-526).
T3 construct: cloned into pDOM38, which provides a human IgG1 Fc; also called rcKIT; rckit; not shown: Human IgG1 Fc (and any linker) supplied by vector pDOM38
Briefly: BIAcore, bad fit.

Test [4] addresses T2, human c-kit (recombinant, on BIAcore …). The test is described as follows: BIAcore.
The target in test [5] is T1, cyno c-kit (recombinant, on BIAcore …). The test is described as follows: BIAcore, c-kit on SA chip. The protocol:
as §1

For test [6], the target named is T2, human c-kit (recombinant, on BIAcore …). The test is described as follows: BIAcore 2000, 1 uM dAb. The protocol:
All binding data was performed on a BIAcore 2000 instrument at 1 uM of dAb concentration.

Test [7] deals with T4, human c-kit on HEL-92.1.7 and KU812 cells (human, UniProt P10721 26-976).
T4 construct: whole, on cells
T4 sequence (P10721 26-976): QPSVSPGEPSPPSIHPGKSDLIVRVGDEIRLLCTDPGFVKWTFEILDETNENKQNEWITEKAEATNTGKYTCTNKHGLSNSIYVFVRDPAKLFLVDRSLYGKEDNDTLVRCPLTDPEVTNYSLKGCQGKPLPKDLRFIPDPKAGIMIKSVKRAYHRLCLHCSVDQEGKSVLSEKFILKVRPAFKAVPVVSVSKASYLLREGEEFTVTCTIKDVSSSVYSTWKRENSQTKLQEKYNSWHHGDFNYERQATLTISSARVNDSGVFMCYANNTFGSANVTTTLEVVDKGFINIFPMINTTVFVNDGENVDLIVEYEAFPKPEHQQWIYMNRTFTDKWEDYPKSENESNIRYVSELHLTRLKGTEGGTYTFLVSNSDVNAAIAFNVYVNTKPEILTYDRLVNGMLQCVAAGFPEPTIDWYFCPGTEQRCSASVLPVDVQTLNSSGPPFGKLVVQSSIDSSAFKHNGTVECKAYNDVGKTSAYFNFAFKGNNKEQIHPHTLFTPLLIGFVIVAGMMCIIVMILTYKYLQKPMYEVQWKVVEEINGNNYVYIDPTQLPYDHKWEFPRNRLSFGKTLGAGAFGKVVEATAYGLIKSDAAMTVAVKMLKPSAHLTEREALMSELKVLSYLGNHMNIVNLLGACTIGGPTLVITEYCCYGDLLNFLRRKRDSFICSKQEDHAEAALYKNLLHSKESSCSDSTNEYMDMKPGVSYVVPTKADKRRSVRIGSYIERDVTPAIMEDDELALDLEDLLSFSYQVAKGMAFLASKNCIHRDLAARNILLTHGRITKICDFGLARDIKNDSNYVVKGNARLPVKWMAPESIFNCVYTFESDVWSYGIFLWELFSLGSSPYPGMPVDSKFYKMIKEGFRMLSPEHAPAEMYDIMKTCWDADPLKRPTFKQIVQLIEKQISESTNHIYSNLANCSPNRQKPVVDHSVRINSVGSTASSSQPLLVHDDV
The test is described as follows: flow cytometry, HEL-92.1.7 cells. (A flow cytometer gives signals particle by particle.)

The target in test [8] is T2, human c-kit (recombinant, on BIAcore …). Briefly: BIAcore, dAb at 1000 and 500 nM. Here is the method:
Unique dAbs were expressed as bacterial supernatants in 2.5 L shake flasks in Onex media at 37° C. for 24 hrs at 250 rpm. dAbs were purified from the culture media by absorption to protein A or L agarose followed by elution with 10 mM glycine pH2.0.

Test [9] has the same target. Briefly: BIAcore. This is another data set of the same source.
For test [10], the target named is Myosin Light Chain (on streptavidin chip; vMLC1-sulfotag). Briefly: BIAcore, bad fit.
Chain of Myosin Light Chain (on streptavidin chip; vMLC1-sulfotag) (chain, as listed by the source): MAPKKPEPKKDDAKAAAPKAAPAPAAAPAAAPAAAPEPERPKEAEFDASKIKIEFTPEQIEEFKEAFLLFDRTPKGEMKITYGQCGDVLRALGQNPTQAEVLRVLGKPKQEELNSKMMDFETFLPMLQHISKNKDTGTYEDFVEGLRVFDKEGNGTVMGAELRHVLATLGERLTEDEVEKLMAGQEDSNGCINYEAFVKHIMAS
Test [11] addresses T2, human c-kit (recombinant, on BIAcore …). The test is described as follows: BIAcore, bad fit.
Test [12] addresses T5, human ventricular myosin light chain 1, GlySer(His)6 tag (human, UniProt P08590 1-195, limits assumed).
T5 construct: also called human vMLC-1; vMLC1-6xHIS
Briefly: BIAcore, vMLC-1 immobilised.

Test [13] has as its target T6, mouse ventricular myosin light chain 1, GlySer(His)6 tag (mouse, UniProt P09542 1-204).
T6 construct: also called mouse vMLC-1
Briefly: BIAcore, vMLC-1 immobilised.

T6 sequence (P09542 other isoform, or with tags, fused parts or gaps): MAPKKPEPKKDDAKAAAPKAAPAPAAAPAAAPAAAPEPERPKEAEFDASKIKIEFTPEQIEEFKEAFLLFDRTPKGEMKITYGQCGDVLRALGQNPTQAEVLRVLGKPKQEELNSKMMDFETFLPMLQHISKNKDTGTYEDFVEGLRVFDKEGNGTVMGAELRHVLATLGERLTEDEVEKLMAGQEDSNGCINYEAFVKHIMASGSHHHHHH
T5 sequence (P08590 other isoform, or with tags, fused parts or gaps limits assumed): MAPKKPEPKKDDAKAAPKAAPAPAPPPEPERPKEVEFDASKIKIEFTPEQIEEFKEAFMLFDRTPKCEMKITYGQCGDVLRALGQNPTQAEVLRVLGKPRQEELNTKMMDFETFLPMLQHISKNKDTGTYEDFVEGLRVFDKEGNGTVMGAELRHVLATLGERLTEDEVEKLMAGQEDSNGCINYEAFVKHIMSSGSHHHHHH
T3 sequence (Q63116 entry or part of it limits assumed, form in doubt): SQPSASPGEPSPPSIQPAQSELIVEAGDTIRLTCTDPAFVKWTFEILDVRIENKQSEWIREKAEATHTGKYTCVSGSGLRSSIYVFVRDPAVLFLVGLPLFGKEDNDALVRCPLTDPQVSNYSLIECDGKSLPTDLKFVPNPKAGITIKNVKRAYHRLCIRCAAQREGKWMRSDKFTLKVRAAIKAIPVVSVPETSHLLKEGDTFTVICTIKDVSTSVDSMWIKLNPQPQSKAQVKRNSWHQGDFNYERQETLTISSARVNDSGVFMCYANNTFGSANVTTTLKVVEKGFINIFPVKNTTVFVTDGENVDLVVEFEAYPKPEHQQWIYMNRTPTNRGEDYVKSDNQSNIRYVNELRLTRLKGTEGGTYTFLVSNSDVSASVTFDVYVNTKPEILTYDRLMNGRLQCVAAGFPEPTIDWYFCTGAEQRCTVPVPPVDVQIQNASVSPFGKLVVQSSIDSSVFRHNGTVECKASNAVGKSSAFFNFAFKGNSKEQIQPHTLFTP

B1: DOM28h-43 (other)
chain: DIQMTQSPSSLSASVGDRVTITCRASSPIGESLKWYQQKPGKAPKLLIWGGSWLQSGVPSRFSGSGSGTDFTLTISSLQPEDFATYYCGPGRGWPLTFGQGTKVEIKR
notes: dAb, C-terminal FLAG tag (pDOM10); also called DOM28h-043
One may read the Kd as a measure of binding affinity in units of concentration. On to B1, for which the Kd in test [1] was determined as 345 nM; in test [2], 239 nM.

B2: DOM28m-23 (other)
VH: EVRLLESGGGLVQPGGSLRLSCAASGFTFRDYVMVWVRQAPGKGLEWVSAIAPTGGYTYYADSVKGRFTISRDNSKNTLYLQMNSLRAEDTAVYYCAKSLRTWLSEDLPFDYWGQGTLVTVSS
notes: VH dAb, C-terminal FLAG tag (pDOM10); also called DOM28m-023
With B2, the Kd in test [3] was 25 nM; in test [4], 6000 nM; in [5] it was 2720 nM; in [2], 2900 nM; in test [6] it was 6000 nM.

B3: DOM28m-53 (other)
VH: EVQLLESGGGLVQPGGSLRLSCAASGFTFSDYMMMWVRQAPGKGLEWVSTIDHAGAVTYYADSVKGRFTISRDNSKNTLYLQMNSLRAEDTAVYYCAKNQPVWQANQSRRFDYWGQGTLVTVSS
notes: dAb, C-terminal FLAG tag (pDOM10)
For the molecule B3, the binding result in test [7] is recorded as “binds”.

B4: DOM28h-5 (other)
chain: DIQMTQSPSSLSASVGDRVTITCRASQWIGTALTWYQQKPGKAPKLLIYRGSYLQSGVPSRFSGSGSGTDFTLTISSLQPEDFATYYCQQRYFHPYTFGQGTRVEIKR
notes: dAb, C-terminal FLAG tag (pDOM10); also called DOM28h-005
Turning to B4, the results for the Kd in test [1], in [8] and in [2] were 550 nM, 533 nM and 533 nM, respectively.

B5: DOM28m-47 (other)
VH: EVQLLESGGGLVQPGGSLRLSCAASGFTFEAYGMMWVRQAPGKGLEWVSSISHSGLITYYADSVKGRFTISRDNSKNTLYLQMNSLRAEDTAVYYCAENGPLRQNSYFDYWGQGTLVTVSS
notes: as for B3
On to B5, for which the binding result in test [7] was “binds”.

B6: DOM28m-52 (other)
chain: EVQLLESGGGLVQPGGSLRLSCAASGFTFSSYNMSWVRQAPGKGLEWVSWISSSGLMTYYADSVKGRFTISRDNSKNTLYLQMNSLRAEDTAVYYCAKTSLGSHPSRRPFDYWGQGTLVTVSS
notes: as for B3
As to B6, the binding result in test [7] was “binds”.

B7: DOM28m-7 (other)
VH: EVQLLESGGGLVQPGGSLRLSCAASGFTFSNYAMGWVRQAPGKGLEWVSSISSSGFATYYADSVKGRFTISRDNSKNTLYLQMNSLRAEDTAVYYCAKSESRTFKAFDYWGQGTLVTVSS
notes: VH dAb, C-terminal FLAG tag (pDOM10); also called DOM28m-007
As for B7, the figures for the Kd in test [3], in test [5] and in test [2] were 30 nM, 29000 nM and 7200 nM, respectively.

B8: DOM28h-94 (other)
VH: EVQLLESGGGLVQPGGSLRLSCAASGFTFFPYAMGWVRQAPGKGLEWVSFISGRGDTTYYADSVKGRFTISRDNSKNTLYLQMNSLRAEDTAVYYCAKTATSDLWNFDYWGQGTLVTVSS
notes: VH dAb, C-terminal FLAG tag (pDOM10); also called DOM28h-094
For the molecule B8, the Kd in test [1] stood at 19200 nM; in test [8] it was 21800 nM; in test [2], 21800 nM.

B9: DMS5053 (chimeric MLC mAb-cKIT dAb, DOM28m-017) (bispecific antibody)
heavy: not shown
light: DIVMSQSPSSLAVSAGDKVTMSCKSSQSLLYSRTRKNYLAWYQQKPGQSPKLLIYWASTRQSGVPDRFTGSGSGTDFTLTISSVQAEDLAVYYCKQSYNLFTFGSGTKLEIKRTVAAPSVFIFPPSDEQLKSGTASVVCLLNNFYPREAKVQWKVDNALQSGNSQESVTEQDSKDSTYSLSSTLTLSKADYEKHKVYACEVTHQGLSSPVTKSFNRGEC
On to B9, for which the Kd was determined as 36000 nM in test [9] and 0.003 nM in test [10].

B10: DMS5057 (chimeric MLC mAb-cKIT dAb, DOM28m-109) (bispecific antibody)
heavy: not shown
light: DIVMSQSPSSLAVSAGDKVTMSCKSSQSLLYSRTRKNYLAWYQQKPGQSPKLLIYWASTRQSGVPDRFTGSGSGTDFTLTISSVQAEDLAVYYCKQSYNLFTFGSGTKLEIKRTVAAPSVFIFPPSDEQLKSGTASVVCLLNNFYPREAKVQWKVDNALQSGNSQESVTEQDSKDSTYSLSSTLTLSKADYEKHKVYACEVTHQGLSSPVTKSFNRGEC
On to B10, for which the values for the Kd in test [9] and in test [10] were 318 nM and 0.116 nM, respectively.

B11: DMS5059 (chimeric MLC mAb-cKIT dAb, DOM28m-114) (bispecific antibody)
heavy: not shown
light: DIVMSQSPSSLAVSAGDKVTMSCKSSQSLLYSRTRKNYLAWYQQKPGQSPKLLIYWASTRQSGVPDRFTGSGSGTDFTLTISSVQAEDLAVYYCKQSYNLFTFGSGTKLEIKRTVAAPSVFIFPPSDEQLKSGTASVVCLLNNFYPREAKVQWKVDNALQSGNSQESVTEQDSKDSTYSLSSTLTLSKADYEKHKVYACEVTHQGLSSPVTKSFNRGEC
In the case of B11, the Kd in [10] is 10 nM; in test [11] it was 8 nM.

B12: DMS5055 (chimeric MLC mAb-cKIT dAb, DOM28m-104) (bispecific antibody)
heavy: not shown
light: DIVMSQSPSSLAVSAGDKVTMSCKSSQSLLYSRTRKNYLAWYQQKPGQSPKLLIYWASTRQSGVPDRFTGSGSGTDFTLTISSVQAEDLAVYYCKQSYNLFTFGSGTKLEIKRTVAAPSVFIFPPSDEQLKSGTASVVCLLNNFYPREAKVQWKVDNALQSGNSQESVTEQDSKDSTYSLSSTLTLSKADYEKHKVYACEVTHQGLSSPVTKSFNRGEC
Turning to B12, the Kd was found to be 72 nM in test [9] and 0.124 nM in test [10].

B13: DOM28h-84 (other)
chain: EVQLLESGGGLVQPGGSLRLSCAASGFTFSSYGMSWVRQAPGKGLEWVSWISGTGSGTYYADSVKGRFTISRDNSKNTLYLQMNSLRAEDTAVYYCAKGVPGNNRALFDYWGQGTLVTVSS
notes: dAb, C-terminal FLAG tag (pDOM10); also called DOM28h-084
Take B13: the dissociation constant Kd in [1] turned out to be 10200 nM; in test [8], 896 nM; in [2] it was 896 nM.

B14: recombinant anti-MLC mAb (39-15) (antibody, mouse IgG1, V domains shown)
VH: QVQLQQSGAELASPGASVKLSCKASGYTFTTYWIHWVKQRPGQGLEWIGAIYPGDGDTRYTQNFKDKATLTADSSSSTAYMQLSSLASEDSAVFYCAREGTPPFTTATFAMAYWGQGTSVTVSS
VL: DIVMSQSPSSLAVSAGDKVTMSCKSSQSLLYSRTRKNYLAWYQQKPGQSPKLLIYWASTRQSGVPDRFTGSGSGTDFTLTISSVQAEDLAVYYCKQSYNLFTFGSGTKLEIKR
notes: mouse IgG1 heavy and mouse kappa constant regions, expressed in HEK293E
The term koff denotes the rate constant with which the complex falls apart. A low value points to a long-lived complex. For orientation: kon means the rate constant with which the complex forms. Higher therefore signals faster complex formation. With B14, in [12], binding was characterised by a dissociation constant (Kd) of 0.0047 nM, the koff turned out to be 1.78e-05 s⁻¹ and the kon amounted to 3.81e+06 M⁻¹ s⁻¹. For the same molecule, in [13], binding was characterised by a dissociation constant (Kd) of 0.0222 nM, the koff amounted to 3.46e-05 s⁻¹ and the kon was determined as 1.56e+06 M⁻¹ s⁻¹.

B15: DOM28h-33 (other)
chain: EVQLLESGGGLVQPGGSLRLSCAVSGFTFWNYRMGWVRQAPGKGLEWVSSITPQGTHTYYADSVKGRFTISRDNSKNTLYLQMNSLRAEDTAVYYCAKILSMSENHFDYWGQGTLVTVSS
notes: dAb, C-terminal FLAG tag (pDOM10); also called DOM28h-033
For B15, the Kd in test [1] was found to be 98.5 nM; in [8] it was 48 nM; in test [2] it was 48 nM.
